Bounds are passed on as bounds.

We go through 3 molecules from patent EP1260521B1.

For assay [1], the target named is membrane IgE on U266 B1 cells (human) (UniProt P01854). Briefly: FACS on U266 B1 cells.
Assay [2] deals with FCEH-bound IgE (human IgE loaded on FcERI alpha) (human) (UniProt P01854). Briefly: cell-based or functional assay.
Another assay addresses human IgE (human) (UniProt P01854). Put plainly: 50% inhibition assay of IgE binding to FCEH.

B1: MaE 13 (antibody, from another filing, mouse IgG1, V domains shown)
VH: DVQLQESGPGLVKPSQSLSLTCTVTGYTITSDNAWNWIRQFPGNKLEWMGYINHSGTTSYNPSLKSRISITRDTSKNQFFLQLNSVTTEDTATYYCAWVVAYAMDYWGQGTSVTVSS
VL: DIVMTQSQKFMSTSVGDRVSVTCKASQNVSSNVAWYQQKPGQSPKALIYSASYRYSGVPDRFTGSGSGTDFTLTISNVQSEDLAEYFCQQYYTYPLYTFGGGTKLEIKR
By EC50 is commonly meant the midpoint of the concentration-response curve. Low values mean an effect from little substance, high ones a need for much substance. Take B1: in assay [1], the EC50 is 1 µg/mL. For the same molecule, the PBL Histamine Release (EC50) in assay [2] is greater than 10 µg/mL.

B2: MaE 11 (antibody, from another filing, mouse IgG1, V domains shown)
VH: DVQLQESGPGLVKPSQSLSLACSVTGYSITSGYSWNWIRQFPGNKLEWMGSITYDGSSNYNPSLKNRISVTRDTSQNQFFLKLNSATAEDTATYYCARGSHYFGHWHFAVWGAGTTVTVSS
VL: DIVLTQSPASLAVSLGQRATISCKASQSVDYDGDSYMNWYQQKPGQPPILLIYAASYLGSEIPARFSGSGSGTDFTLNIHPVEEEDAATFYCQQSHEDPYTFGAGTKLEIK
In general, IC50 refers to the concentration that inhibits the measured activity by half. In assay [1], B2 showed an EC50 of 0.15 µg/mL. This molecule showed a PBL Histamine Release (EC50) in assay [2] greater than 100 µg/mL. In the assay with human IgE (human), this molecule came in with an IC50 of 0.449 µg/mL, a Var. X / IgL1H1 of 0.06 and a Var. X / MaE11 of 1.

B3: MaE 15 (antibody, from another filing, mouse IgG1, V domains shown)
VH: DVQHQESEPDLVKPSQSLSLTCTVTGYSITSGYNRHWIRQFPGNKLEWMGYIHYSGSTNYNPSLKRRISITRDTSKNQFFLQLNSVTTEDTATYYCARGSIYYYGSRYRYFDVWGAGTTVTVSS
VL: DIQLTQSPASLAVSLGQRATISCKASQSVDYDGDSYMNWYQQKPGQPPKLLIYAASNLESGIPARFSGSGSGTDFTLNIHPVEEEDAATYYCQQSNEDPFTFGAGT
As to B3, in assay [1], the EC50 was 6 µg/mL. This molecule also yielded a PBL Histamine Release (EC50) in assay [2] greater than 100 µg/mL.
